From patent publication US20240000957A1 (published 2024)
*1 amine or outer side, *2 acyl side, *3 side chain or, on linkers, in order; H or OH if unused. Bridges are numbered along the chain shown (N, C = ends). Where no end group is shown, it is not given here. [ ]: non-standard residue; d: D form. TATA = O=C(CC[*:1])N1CN(C(=O)CC[*:2])CN(C(=O)CC[*:3])C1; 2Nal = N[C@@H](Cc1ccc2ccccc2c1)C(=O)O; βAla = NCCC(=O)O; Sar = CNCC(=O)O

B1: Compound 93 (peptide)
peptide: ACPLVNPLCLHPG[2Nal]SCRGQ
modifications: linker 2-9-16 via TATA; not fully specified (C-terminus); printed as ACPLVNPLCLHPG(2Nal)SCRGQ
B2: Compound 17 (peptide)
peptide: [βAla][Sar][Sar][Sar][Sar][Sar][Sar][Sar][Sar][Sar][Sar]ACVPDRRCAYMNVC
modifications: linker 13-19-25 via TATA; not fully specified (C-terminus); printed as (β-Ala)-Sar10-ACVPDRRCAYMNVC
B3: Compound 88 (peptide)
peptide: Ac-CPLVNPLCLHPGWSCRGQ
modifications: linker 1-8-15 via TATA; not fully specified (C-terminus); printed as Ac-CPLVNPLCLHPGWSCRGQ

Target: T1, Human EphA2 (Ecto), C-terminal polyHis (Human, UniProt P29317 24-537)
T1 construct: extracellular domain; R&D systems 3035-A2 or in-house
Assay: FP competition vs Reference Compound C

T1 sequence (P29317 24-537): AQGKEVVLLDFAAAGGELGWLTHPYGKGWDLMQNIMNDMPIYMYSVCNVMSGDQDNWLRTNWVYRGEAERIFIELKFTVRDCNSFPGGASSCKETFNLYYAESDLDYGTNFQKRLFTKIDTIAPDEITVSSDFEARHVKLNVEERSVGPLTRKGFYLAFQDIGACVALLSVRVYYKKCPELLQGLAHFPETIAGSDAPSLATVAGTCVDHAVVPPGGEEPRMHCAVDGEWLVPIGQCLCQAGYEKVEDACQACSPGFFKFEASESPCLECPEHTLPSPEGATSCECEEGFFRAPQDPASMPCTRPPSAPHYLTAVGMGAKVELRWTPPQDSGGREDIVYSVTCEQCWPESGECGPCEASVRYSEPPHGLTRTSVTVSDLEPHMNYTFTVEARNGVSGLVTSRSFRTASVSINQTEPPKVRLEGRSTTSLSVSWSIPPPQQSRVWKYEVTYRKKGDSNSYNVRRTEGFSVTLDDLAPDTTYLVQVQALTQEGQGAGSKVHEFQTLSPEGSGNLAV

Q: For ACTKPTGFCAYPDTICA (linker 2-9-16 via TATA; not fully specified (C-terminus)) [Compound 33], which Ki is on record?
A: The Ki was 268 nM.

Q: For ACGFMGLEPCELYCAHT (linker 2-10-14 via TATA; not fully specified (C-terminus)) [Compound 49], which Ki is on record?
A: The Ki was 144 nM.

Q: How did the Ki turn out when ACGFMGLEPCVTYCA (linker 2-10-14 via TATA; not fully specified (C-terminus)) [Compound 43] was run?
A: Its Ki is 234 nM.

Q: How did the Ki turn out when B1 was run?
A: Its Ki is 228 nM.

Q: For ACRNWGMYCAYPDTICA (linker 2-9-16 via TATA; not fully specified (C-terminus)) [Compound 35], which Ki is on record?
A: Its Ki is 282 nM.

Q: ACSSCWAYPDSVCA (linker 2-5-13 via TATA; not fully specified (C-terminus)) [Compound 38] was tested. Which Ki did it give?
A: Its Ki is 400 nM.

Q: How did the Ki turn out when ACVPDRRCAYMNVCA (linker 2-8-14 via TATA) [Compound 16] was run?
A: Its Ki is 70 nM.

Q: How did the Ki turn out when ACGFMGLVPCELYCADN (linker 2-10-14 via TATA; not fully specified (C-terminus)) [Compound 51] was run?
A: The Ki was 84.4 nM.

Q: ACRGEWGYCAYPDTICA (linker 2-9-16 via TATA; not fully specified (C-terminus)) [Compound 34] was tested. Which Ki did it give?
A: The Ki was 348 nM.

Q: Which Ki does the source give for ACVPDRRCAFMNVCEDR (linker 2-8-14 via TATA; not fully specified (C-terminus)) [Compound 26] here?
A: The Ki was 39 nM.

Q: Which Ki does the source give for ACPLVNPLCLTPGWTCTNT (linker 2-9-16 via TATA; not fully specified (C-terminus)) [Compound 94] here?
A: Its Ki is 13.2 nM.

Q: With ACPDWGKYCAYPDTICA (linker 2-9-16 via TATA; not fully specified (C-terminus)) [Compound 36] as the binder, how does the Ki read?
A: Its Ki is 160 nM.

Q: Which Ki does the source give for ACGFMGLVPCNVFCA (linker 2-10-14 via TATA; not fully specified (C-terminus)) [Compound 45] here?
A: The Ki was 142 nM.

Q: HSGCRPDPRCAYMNVCA (linker 4-10-16 via TATA) [Compound 21] was tested. Which Ki did it give?
A: The Ki was 62.1 nM.

Q: ACQSCWAYPDTYCA (linker 2-5-13 via TATA; not fully specified (C-terminus)) [Compound 39] was tested. Which Ki did it give?
A: The Ki was 321 nM.

Q: For ACPLVNPLCLTSGWKCA (linker 2-9-16 via TATA; not fully specified (C-terminus)) [Compound 52], which Ki is on record?
A: The Ki was 115 nM.

Q: ACGFMGLEPCELFCA (linker 2-10-14 via TATA; not fully specified (C-terminus)) [Compound 46] was tested. Which Ki did it give?
A: Its Ki is 81.7 nM.

Q: With ACGFMGLEPCEMYCA (linker 2-10-14 via TATA; not fully specified (C-terminus)) [Compound 50] as the binder, how does the Ki read?
A: Its Ki is 140 nM.

Q: For ACGFMGLEPCETFCA (linker 2-10-14 via TATA; not fully specified (C-terminus)) [Compound 40], which Ki is on record?
A: Its Ki is 188 nM.

Q: How did the Ki turn out when ACGFMGLEPCEMVCA (linker 2-10-14 via TATA; not fully specified (C-terminus)) [Compound 42] was run?
A: Its Ki is 320 nM.

Q: With ACGFMGLEPCELVCA (linker 2-10-14 via TATA; not fully specified (C-terminus)) [Compound 44] as the binder, how does the Ki read?
A: Its Ki is 127 nM.

Q: GSGCKPDSRCAYMNVCA (linker 4-10-16 via TATA; not fully specified (C-terminus)) [Compound 22] was tested. Which Ki did it give?
A: The Ki was 63.2 nM.

Q: Which Ki does the source give for ETVCLPDSRCAYMNVCA (linker 4-10-16 via TATA; not fully specified (C-terminus)) [Compound 23] here?
A: The Ki was 130 nM.

Q: For ACVPDRRCAFENVCVDH (linker 2-8-14 via TATA; not fully specified (C-terminus)) [Compound 25], which Ki is on record?
A: The Ki was 97.3 nM.

Q: With B2 as the binder, how does the Ki read?
A: The Ki was 85 nM.

Q: For ACPLVNPLCLHPGWTCA (linker 2-9-16 via TATA; not fully specified (C-terminus)) [Compound 64], which Ki is on record?
A: The Ki was 30 nM.

Q: How did the Ki turn out when ACPMVNPLCLHPGWTCA (linker 2-9-16 via TATA) [Compound 97] was run?
A: The Ki was 20 nM.

Q: For ACPLVNPLCLHPGWICA (linker 2-9-16 via TATA; not fully specified (C-terminus)) [Compound 54], which Ki is on record?
A: Its Ki is 15.2 nM.

Q: How did the Ki turn out when ACPLVNPLCLHPGWRCA (linker 2-9-16 via TATA; not fully specified (C-terminus)) [Compound 55] was run?
A: The Ki was 20.6 nM.

Q: For ACPLVNPLCLHPGWSCA (linker 2-9-16 via TATA; not fully specified (C-terminus)) [Compound 86], which Ki is on record?
A: The Ki was 56.1 nM.

Q: Which Ki does the source give for ACPLVNPLCLEPGWTCA (linker 2-9-16 via TATA; not fully specified (C-terminus)) [Compound 84] here?
A: Its Ki is 53.9 nM.

Q: Which Ki does the source give for ACPLVNPLCLVPGWSCA (linker 2-9-16 via TATA; not fully specified (C-terminus)) [Compound 57] here?
A: Its Ki is 35.4 nM.

Q: ACPLVNPLCLAPGWTCA (linker 2-9-16 via TATA; not fully specified (C-terminus)) [Compound 82] was tested. Which Ki did it give?
A: Its Ki is 46.2 nM.

Q: Which Ki does the source give for ACPMVNPLCLHPGWICA (linker 2-9-16 via TATA; not fully specified (C-terminus)) [Compound 53] here?
A: Its Ki is 15.4 nM.

Q: Which Ki does the source give for ACVPDRRCAFQDVCDHE (linker 2-8-14 via TATA; not fully specified (C-terminus)) [Compound 27] here?
A: Its Ki is 159 nM.

Q: For SRPCVIDSRCAYMNVCA (linker 4-10-16 via TATA) [Compound 19], which Ki is on record?
A: The Ki was 94.8 nM.

Q: Which Ki does the source give for DLRCGGDPRCAYMNVCA (linker 4-10-16 via TATA) [Compound 18] here?
A: The Ki was 70.8 nM.

Q: B3 was tested. Which Ki did it give?
A: The Ki was 1.64 nM.

Q: How did the Ki turn out when ACGFMGLVPCEVHCA (linker 2-10-14 via TATA; not fully specified (C-terminus)) [Compound 41] was run?
A: The Ki was 155 nM.

Q: For ACVPDRRCAFRDVCLTG (linker 2-8-14 via TATA; not fully specified (C-terminus)) [Compound 28], which Ki is on record?
A: The Ki was 1700 nM.

Q: How did the Ki turn out when ACPLVNPLCLEPGWTCAKR (linker 2-9-16 via TATA; not fully specified (C-terminus)) [Compound 85] was run?
A: The Ki was 10.9 nM.

Q: Which Ki does the source give for ACMNDWWCAMGWKCA (linker 2-8-14 via TATA) [Compound 15] here?
A: Its Ki is 278 nM.

Q: How did the Ki turn out when ACPLVNPLCNLPGWTCA (linker 2-9-16 via TATA; not fully specified (C-terminus)) [Compound 56] was run?
A: The Ki was 184 nM.

Q: With ACGFMGLEPCELFCMPK (linker 2-10-14 via TATA; not fully specified (C-terminus)) [Compound 47] as the binder, how does the Ki read?
A: Its Ki is 185 nM.

Q: How did the Ki turn out when TPRCPLVNPLCLMPGWTCA (linker 4-11-18 via TATA; not fully specified (C-terminus)) [Compound 81] was run?
A: Its Ki is 9.8 nM.

Q: How did the Ki turn out when ESRCSPDARCAYMNVCA (linker 4-10-16 via TATA) [Compound 20] was run?
A: The Ki was 57 nM.
